Paper doi:10.1101/2023.01.30.525655 (bioRxiv, 2023)

B1: MDL3-6xHis (Arabidopsis thaliana MIF/D-DT-like protein 3, hexahistidine-tagged) (natural protein, UniProt F4J4H3 1-112, looked up)
chain: MPCLYITTNVNFDGVNTDPFYSEVTKAVASIVGRPQNLVMVVLKGSVEIVFGGNKEAAAYAEIVSMGGITKQVKRELIATVGSILHTHFSIHPTRFIFKVFDINSLPLPSKL
B2: MDL2-6xHis (Arabidopsis thaliana MIF/D-DT-like protein 2, hexahistidine-tagged) (natural protein)
chain: PCLNLSTNVNLDGVDTSSILSEASSTVAKIIGKPENYVMIVLKGSVPMSFGGTEDPAAYGELVSIGGLNADVNKKLSAAVSAILETKLSVPKSRFFLKFYDTKGSFFGWNGATL

What was measured:
[1] = biological target: the molecule itself; assay: crystal structure
[2] = biological target: RED-NHS-MIF-6xHis (human MIF-6xHis labelled with the RED-NHS dye) (human, UniProt P14174 2-115, RED-NHS dye (chemically labeled)); assay: MST
Sequence of RED-NHS-MIF-6xHis (human MIF-6xHis labelled with the RED-NHS dye) (P14174 2-115): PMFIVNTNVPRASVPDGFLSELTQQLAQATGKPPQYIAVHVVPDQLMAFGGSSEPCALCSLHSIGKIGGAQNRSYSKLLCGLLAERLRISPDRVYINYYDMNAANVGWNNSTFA

[3] = biological target: MIF-6xHis (human macrophage migration inhibitory factor, hexahistidine-tagged) (human, UniProt P14174 2-115); assay: cell-based or functional assay
Sequence of MIF-6xHis (human macrophage migration inhibitory factor, hexahistidine-tagged) (P14174 2-115): as above

[4] = biological target: the molecule itself; assay: SEC

| Binder | stoichiometry N [1] | Kd [2] | synergy in the CXCR4 yeast lacZ reporter, 10 µM MIF with 10 µM MDL2 [3] | stoichiometry N [4] |
| --- | --- | --- | --- | --- |
| B1 | 3 | < 5 µM |  |  |
| B2 |  | < 5 µM | ~3 fold over the MIF-MDL1 combination | 3 |
